Positions of bridges follow the written chain, without caps; N, C: chain ends. Non-standard residues stand in square brackets, D forms with d. No end group written: not given here. *: point of attachment. Acetyl(2-(4-imidazolyl)) = O=C(Cc1c[nH]cn1)*; Aib = CC(C)(N)C(=O)O
T1: human GIP receptor (human, UniProt P48546 22-466)
T1 sequence (looked up): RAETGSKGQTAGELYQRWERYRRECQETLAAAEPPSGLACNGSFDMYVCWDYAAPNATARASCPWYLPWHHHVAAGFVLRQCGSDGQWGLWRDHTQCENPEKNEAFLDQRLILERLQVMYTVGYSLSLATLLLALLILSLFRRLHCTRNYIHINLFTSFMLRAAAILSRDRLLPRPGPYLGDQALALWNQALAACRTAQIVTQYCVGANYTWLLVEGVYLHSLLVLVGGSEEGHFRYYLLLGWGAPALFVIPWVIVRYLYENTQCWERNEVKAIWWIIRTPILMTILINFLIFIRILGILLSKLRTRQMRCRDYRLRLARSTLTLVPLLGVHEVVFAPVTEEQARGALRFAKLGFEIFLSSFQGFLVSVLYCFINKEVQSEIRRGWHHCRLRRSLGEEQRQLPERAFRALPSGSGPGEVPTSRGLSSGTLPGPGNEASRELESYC


Experiments:
Assay in all cases: cell-based or functional assay
human GCG receptor = human GCG receptor (human, UniProt P47871 26-477)
human GIP receptor = target: T1, human GIP receptor
human GLP-1 receptor = human GLP-1 receptor (human, UniProt P43220 24-463)

Chain of human GCG receptor (P47871 26-477): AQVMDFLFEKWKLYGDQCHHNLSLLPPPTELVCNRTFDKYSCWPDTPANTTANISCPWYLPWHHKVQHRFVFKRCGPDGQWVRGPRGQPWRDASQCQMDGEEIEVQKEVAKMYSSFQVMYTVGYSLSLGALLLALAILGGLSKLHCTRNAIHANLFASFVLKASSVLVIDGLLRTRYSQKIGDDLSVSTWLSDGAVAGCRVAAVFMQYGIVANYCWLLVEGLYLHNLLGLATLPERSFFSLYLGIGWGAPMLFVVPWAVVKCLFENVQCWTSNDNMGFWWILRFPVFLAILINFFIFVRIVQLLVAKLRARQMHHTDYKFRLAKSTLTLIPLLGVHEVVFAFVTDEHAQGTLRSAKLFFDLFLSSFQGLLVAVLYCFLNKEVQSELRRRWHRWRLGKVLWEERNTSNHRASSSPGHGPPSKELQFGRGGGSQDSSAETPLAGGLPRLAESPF

Binder | In vitro activity relative to native peptide (%), vs. Glucagon (cAMP EC50) (human GCG receptor) [%] | In vitro activity relative to native peptide (%), vs. GIP (cAMP EC50) (human GIP receptor) [%] | In vitro activity relative to native peptide (%), vs. GLP-1 (cAMP EC50) (human GLP-1 receptor) [%]
Y[Aib]QGTFTSDYSKYLDEKRAKEFVQWLLDCHPSSGQPPPS (bridge 16-20) [trigonal agonist of SEQ ID NO: 97] | 62.8 | 2.6 | 10.5
H[Aib]QGTFTSDVSSYLDGQAQKEFIAWLVKGC [trigonal agonist of SEQ ID NO: 2] | < 0.1 | < 0.1 | 5.9
Y[Aib]QGTFTSDYSKALDEKAAKEFVNWLLDHHPSSGQPPPSC (bridge 16-20) [trigonal agonist of SEQ ID NO: 98] | 8.2 | 47.1 | 28.1
Y[Aib]QGTFTSDYSKALDEKAAKDFVNWLLDHHPSSGQPPPSC (bridge 16-20) [trigonal agonist of SEQ ID NO: 99] | 14.9 | 57.7 | 20.9
{Acetyl(2-(4-imidazolyl))}-GEGTFISDLSKYMDEQAVQLFVEWLMAGGPSSGAPPPSHG [trigonal agonist of SEQ ID NO: 12] | < 0.1 | < 0.1 | 0.4
Y[Aib]QGTFTSDYSKALDEKAAKDFVNWLLDQHPSSGQPPPSC (bridge 16-20) [trigonal agonist of SEQ ID NO: 102] | 29.5 | 58 | 23.3
{Acetyl(2-(4-imidazolyl))}-GEGTFTSDLSKYLDSRRQQLFVQWLKAGGPSSGAPPPSHG [trigonal agonist of SEQ ID NO: 11] | < 0.1 | < 0.1 | 1.4
{Acetyl(2-(4-imidazolyl))}-GQGTFTSDYSIQLDEIAVRDFVEWLKNGGPSSGAPPPSHG [trigonal agonist of SEQ ID NO: 14] | < 0.1 | < 0.1 | 28
Y[Aib]QGTFTSDYSKALDEKAAKEFVQWLLDQHPSSGQPPPSC (bridge 16-20) [trigonal agonist of SEQ ID NO: 100] | 12.7 | 118 | 42.2
{Acetyl(2-(4-imidazolyl))}-GEGTFISDYSIQLDEIAVQDFVEWLLAQKPSSGAPPPSHG [trigonal agonist of SEQ ID NO: 13] | < 0.1 | < 0.1 | < 0.1
Y[Aib]QGTFTSDYSKALDEKAAKEFVNWLLDQHPSSGQPPPSC (bridge 16-20) [trigonal agonist of SEQ ID NO: 101] | 13.9 | 40.1 | 23.2
